Experimental data as given in PMC10397247.

Assays:
4H855-bN = biological target: T1, 4H855-bN; assay: two-hybrid library CCNG1;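 note: natural log of median RNA to DNA barcode read ratio; higher means stronger binding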
T1 chain: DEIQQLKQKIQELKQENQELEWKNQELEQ

4H918-bN = biological target: T2, 4H918-bN; assay: two-hybrid library CCNG1;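 note: natural log of median RNA to DNA barcode read ratio; higher means stronger binding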
T2 chain: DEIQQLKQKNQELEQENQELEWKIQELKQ

4H953-bN = biological target: T3, 4H953-bN; assay: two-hybrid library CCNG1;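 note: natural log of median RNA to DNA barcode read ratio; higher means stronger binding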
T3 chain: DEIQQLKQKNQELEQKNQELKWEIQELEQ

4H968-bN = biological target: T4, 4H968-bN; assay: two-hybrid library CCNG1;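 note: natural log of median RNA to DNA barcode read ratio; higher means stronger binding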
T4 chain: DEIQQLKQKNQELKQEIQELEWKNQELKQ

P1A-bN = biological target: T5, P1A-bN; assay: two-hybrid library CCNG1;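 note: natural log of median RNA to DNA barcode read ratio; higher means stronger binding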
T5 chain: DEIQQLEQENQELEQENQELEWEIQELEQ

4H118-bA = biological target: T6, 4H118-bA; assay: two-hybrid library CCNG1;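 note: natural log of median RNA to DNA barcode read ratio; higher means stronger binding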
T6 chain: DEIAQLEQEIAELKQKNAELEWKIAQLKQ

4H170-bA = biological target: T7, 4H170-bA; assay: two-hybrid library CCNG1
T7 chain: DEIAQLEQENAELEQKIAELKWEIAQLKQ

4H1831-bA = biological target: T8, 4H1831-bA; assay: two-hybrid library CCNG1
T8 chain: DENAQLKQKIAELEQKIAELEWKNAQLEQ

4H2586-bA = biological target: T9, 4H2586-bA; assay: two-hybrid library CCNG1
T9 chain: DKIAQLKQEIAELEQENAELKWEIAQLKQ

4H2627-bA = biological target: T10, 4H2627-bA; assay: two-hybrid library CCNG1
T10 chain: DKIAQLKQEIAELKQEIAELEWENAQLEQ

4H2673-bA = biological target: T11, 4H2673-bA; assay: two-hybrid library CCNG1
T11 chain: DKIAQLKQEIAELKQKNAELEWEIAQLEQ

4H2702-bA = biological target: T12, 4H2702-bA; assay: two-hybrid library CCNG1
T12 chain: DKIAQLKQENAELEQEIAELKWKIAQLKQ

4H3010-bA = biological target: T13, 4H3010-bA; assay: two-hybrid library CCNG1
T13 chain: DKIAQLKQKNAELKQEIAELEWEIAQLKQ

4H3112-bA = biological target: T14, 4H3112-bA; assay: two-hybrid library CCNG1
T14 chain: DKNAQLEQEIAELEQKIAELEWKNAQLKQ

4H3427-bA = biological target: T15, 4H3427-bA; assay: two-hybrid library CCNG1
T15 chain: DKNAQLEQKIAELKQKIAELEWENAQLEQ

4H346-bA = biological target: T16, 4H346-bA; assay: two-hybrid library CCNG1
T16 chain: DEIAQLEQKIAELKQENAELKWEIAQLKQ

4H3926-bA = biological target: T17, 4H3926-bA; assay: two-hybrid library CCNG1
T17 chain: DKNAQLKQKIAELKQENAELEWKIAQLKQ

4H4073-bA = biological target: T18, 4H4073-bA; assay: two-hybrid library CCNG1
T18 chain: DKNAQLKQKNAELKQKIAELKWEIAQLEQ

4H457-bA = biological target: T19, 4H457-bA; assay: two-hybrid library CCNG1
T19 chain: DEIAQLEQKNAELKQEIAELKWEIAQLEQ

4H575-bA = biological target: T20, 4H575-bA; assay: two-hybrid library CCNG1
T20 chain: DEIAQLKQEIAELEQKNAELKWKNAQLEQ

4H683-bA = biological target: T21, 4H683-bA; assay: two-hybrid library CCNG1
T21 chain: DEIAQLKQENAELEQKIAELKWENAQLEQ

4H754-bA = biological target: T22, 4H754-bA; assay: two-hybrid library CCNG1
T22 chain: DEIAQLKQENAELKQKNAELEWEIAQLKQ

4H780-bA = biological target: T23, 4H780-bA; assay: two-hybrid library CCNG1
T23 chain: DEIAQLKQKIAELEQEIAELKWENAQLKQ

4H797-bA = biological target: T24, 4H797-bA; assay: two-hybrid library CCNG1
T24 chain: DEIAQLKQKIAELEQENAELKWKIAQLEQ

4H855-bA = biological target: T25, 4H855-bA; assay: two-hybrid library CCNG1
T25 chain: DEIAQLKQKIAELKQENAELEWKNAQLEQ

4H918-bA = biological target: T26, 4H918-bA; assay: two-hybrid library CCNG1
T26 chain: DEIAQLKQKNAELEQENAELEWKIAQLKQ

4H953-bA = biological target: T27, 4H953-bA; assay: two-hybrid library CCNG1
T27 chain: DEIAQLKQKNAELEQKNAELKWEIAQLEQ

4H968-bA = biological target: T28, 4H968-bA; assay: two-hybrid library CCNG1
T28 chain: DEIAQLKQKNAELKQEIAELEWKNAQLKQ

O3-bP = biological target: T29, O3-bP; assay: two-hybrid library CCNG1
T29 chain: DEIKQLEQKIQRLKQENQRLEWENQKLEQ

4H1405-AA = biological target: T30, 4H1405-AA; assay: two-hybrid library CCmax
T30 chain: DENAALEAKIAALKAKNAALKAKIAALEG

4H175-AA = biological target: T31, 4H175-AA; assay: two-hybrid library CCmax
T31 chain: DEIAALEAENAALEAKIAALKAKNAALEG

4H2211-AA = biological target: T32, 4H2211-AA; assay: two-hybrid library CCmax; settings: mean of both orientations
T32 chain: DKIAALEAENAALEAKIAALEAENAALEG

4H2238-AA = biological target: T33, 4H2238-AA; assay: two-hybrid library CCmax; settings: mean of both orientations
T33 chain: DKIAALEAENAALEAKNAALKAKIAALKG

4H2513-AA = biological target: T34, 4H2513-AA; assay: two-hybrid library CCmax; settings: mean of both orientations
T34 chain: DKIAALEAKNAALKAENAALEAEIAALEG

4H2536-AA = biological target: T35, 4H2536-AA; assay: two-hybrid library CCmax; settings: mean of both orientations
T35 chain: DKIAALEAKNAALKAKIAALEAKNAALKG

4H2608-AA = biological target: T36, 4H2608-AA; assay: two-hybrid library CCmax; settings: mean of both orientations
T36 chain: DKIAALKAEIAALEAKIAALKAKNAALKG

4H2614-AA = biological target: T37, 4H2614-AA; assay: two-hybrid library CCmax; settings: mean of both orientations
T37 chain: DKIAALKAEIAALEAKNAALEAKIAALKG

4H2726-AA = biological target: T38, 4H2726-AA; assay: two-hybrid library CCmax; settings: mean of both orientations
T38 chain: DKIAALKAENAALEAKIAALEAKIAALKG

4H2935-AA = biological target: T39, 4H2935-AA; assay: two-hybrid library CCmax; settings: mean of both orientations
T39 chain: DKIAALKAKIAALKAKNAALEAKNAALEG

4H327-AA = biological target: T40, 4H327-AA; assay: two-hybrid library CCmax; settings: mean of both orientations
T40 chain: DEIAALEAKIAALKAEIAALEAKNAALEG

4H3605-AA = biological target: T41, 4H3605-AA; assay: two-hybrid library CCmax; settings: mean of both orientations
T41 chain: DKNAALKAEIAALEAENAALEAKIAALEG

4H3625-AA = biological target: T42, 4H3625-AA; assay: two-hybrid library CCmax; settings: mean of both orientations
T42 chain: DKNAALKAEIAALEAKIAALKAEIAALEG

4H3664-AA = biological target: T43, 4H3664-AA; assay: two-hybrid library CCmax; settings: mean of both orientations
T43 chain: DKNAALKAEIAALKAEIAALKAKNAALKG

4H369-AA = biological target: T44, 4H369-AA; assay: two-hybrid library CCmax; settings: mean of both orientations
T44 chain: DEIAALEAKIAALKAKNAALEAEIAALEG

4H3922-AA = biological target: T45, 4H3922-AA; assay: two-hybrid library CCmax; settings: mean of both orientations
T45 chain: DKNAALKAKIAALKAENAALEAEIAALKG

4H4033-AA = biological target: T46, 4H4033-AA; assay: two-hybrid library CCmax; settings: mean of both orientations
T46 chain: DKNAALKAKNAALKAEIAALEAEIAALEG

4H481-AA = biological target: T47, 4H481-AA; assay: two-hybrid library CCmax; settings: mean of both orientations
T47 chain: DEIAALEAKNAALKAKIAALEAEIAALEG

4H55-AA = biological target: T48, 4H55-AA; assay: two-hybrid library CCmax
T48 chain: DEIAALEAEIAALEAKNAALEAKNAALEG

4H662-AA = biological target: T49, 4H662-AA; assay: two-hybrid library CCmax; settings: mean of both orientations
T49 chain: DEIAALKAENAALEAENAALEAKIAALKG

With DEIQQLKQKIQELKQENQELEWKNQELEQ [4H855-bN] as the binder, how does the interaction score (4H855-bN) read?
Its interaction score is -0.495.

What about the interaction score (4H918-bN) of the same binder?
The interaction score was -0.862.

And the interaction score (4H953-bN)?
Its interaction score is -0.67.

And the interaction score (4H968-bN)?
Its interaction score is -1.39.

And the interaction score (P1A-bN)?
The interaction score was -0.584.

What does the source list for DEIAQLEQEIAELKQKNAELEWKIAQLKQ [4H118-bA]?
interaction score (4H118-bA): 1.64; interaction score (4H170-bA): -0.0431; interaction score (4H1831-bA): -0.644; interaction score (4H2586-bA): 0.381; interaction score (4H2627-bA): 0.852; interaction score (4H2673-bA): 1.32; interaction score (4H2702-bA): 0.439; interaction score (4H3010-bA): 2.66; interaction score (4H3112-bA): 0.131; interaction score (4H3427-bA): 0.236; interaction score (4H346-bA): -0.612; interaction score (4H3926-bA): 1.96; interaction score (4H4073-bA): -0.156; interaction score (4H457-bA): -0.384; interaction score (4H575-bA): 0.369; interaction score (4H683-bA): -0.721; interaction score (4H754-bA): -1.04; interaction score (4H780-bA): 0.087; interaction score (4H797-bA): -1.22; interaction score (4H855-bA): 0.403; interaction score (4H918-bA): -0.49; interaction score (4H953-bA): -0.791; interaction score (4H968-bA): 0.0453; interaction score (O3-bP): -1.86

Which results are given for DENAALEAKIAALKAKNAALKAKIAALEG [4H1405-AA]?
interaction score (4H1405-AA): -1.08; interaction score (4H175-AA): 1.87; interaction score (4H2211-AA): 1.88; interaction score (4H2238-AA): -1.22; interaction score (4H2513-AA): -1.52; interaction score (4H2536-AA): -1.01; interaction score (4H2608-AA): -0.735; interaction score (4H2614-AA): 1.52; interaction score (4H2726-AA): 0.87; interaction score (4H2935-AA): -1.84; interaction score (4H327-AA): -1.19; interaction score (4H3605-AA): 2.26; interaction score (4H3625-AA): -1.11; interaction score (4H3664-AA): -1.67; interaction score (4H369-AA): -0.585; interaction score (4H3922-AA): 0.997; interaction score (4H4033-AA): -0.407; interaction score (4H481-AA): -0.893; interaction score (4H55-AA): -1.42; interaction score (4H662-AA): 0.709
